First the molecules themselves.
B1: Type 3 secretion system chaperone PscE (Pseudomonas aeruginosa (strain ATCC 15692 / PAO1 / 1C / PRS 101 / LMG 12228)), Q9I317 (parent)
chain: MMTALETRLSVADGTHAAALRQRLQAALAECRRELARGACPEHFQFLQQQARALEGGLGILSQLTED
partner: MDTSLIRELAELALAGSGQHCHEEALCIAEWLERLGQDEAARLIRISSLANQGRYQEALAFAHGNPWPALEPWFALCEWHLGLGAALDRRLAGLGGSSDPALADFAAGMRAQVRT
B2: Type 3 secretion system chaperone PscG (Pseudomonas aeruginosa (strain ATCC 15692 / PAO1 / 1C / PRS 101 / LMG 12228)), P95435 (parent)
chain: B1 partner
partner: B1 chain

The variants in the first test derive from B1. Conditions: with pscg_pseae pscG, P95435.
Regarding L20S, the “effect of a mutation on the interaction” value is “decreasing interaction”. Consider G57D, for which the “effect of a mutation on the interaction” value is listed as “disrupting interaction”.

In another test the parent is B2. Conditions: with psce_pseae pscE, Q9I317.
Turning to L9S, the “effect of a mutation on the interaction” value is “decreasing interaction”. The same measure, in the same setting: the value for L5S;L9S was “decreasing interaction”; that for I28S was “decreasing interaction”. On the same count and under the same terms, the value for I28S;W31S was “decreasing interaction”; that for L5S was “decreasing interaction”.

The values are drawn from IntAct's records for PubMed 20494986.
